Data on two compounds can be found in paper PMC4506958 (FEBS Open Bio, 2015).

Test [1] addresses Nrf2 ETGE motif (Homo sapiens) (UniProt Q16236). In words: ITC. As to conditions: cited from earlier work.
Test [2] deals with T1, Keap1 (Kelch-like ECH-associated protein 1) (Homo sapiens, UniProt Q14145).
T1 construct: Kelch domain (residues 321–609)
Briefly: X-ray crystal structures at […] Å (soaking form 3vnh, cocrystallization form 3vng); SPR; AlphaScreen competition with Nrf2 peptide. The test is classed as binding. Background: In Alpha technology, singlet oxygen from a donor bead excites a nearby acceptor bead.

The term Kd denotes the free concentration of one partner at which half of the binding sites on the other are occupied at equilibrium, for simple one-to-one binding.

Sequence of Keap1 Kelch domain (Q14145 321-609): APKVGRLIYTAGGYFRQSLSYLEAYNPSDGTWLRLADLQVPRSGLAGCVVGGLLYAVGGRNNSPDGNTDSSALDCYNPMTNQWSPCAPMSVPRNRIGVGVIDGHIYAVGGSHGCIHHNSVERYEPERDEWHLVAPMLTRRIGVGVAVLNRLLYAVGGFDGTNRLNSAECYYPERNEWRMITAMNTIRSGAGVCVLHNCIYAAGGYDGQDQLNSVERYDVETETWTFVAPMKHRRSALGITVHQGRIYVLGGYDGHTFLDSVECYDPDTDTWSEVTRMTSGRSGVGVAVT
T1 sequence (Q14145 321-609): as above

Turning to “Keap1 Kelch domain (from UniProt Q14145)”, the Kd in test [1] is 8 nM.
Compound `O=C(O)COc1cccc(CNC(=O)Nc2nnc(-c3ccco3)o2)c1` [Ligand1, 2-(3-((3-(5-(furan-2-yl)-1,3,4-oxadiazol-2-yl)ureido)methyl)phenoxy)acetic acid] gave a Kd in test [2] above 50000 nM.
